“And” between values parts separate entries of the source, which are not always exact repeats. Equal entries are not always repeated.

In the experiment the target is Pyruvate kinase M2 (mouse (endogenous in mouse skin)) (UniProt P52480). Description: not stated; detection of dimeric and tetrameric PKM2 protein levels in the skin from sham and skin flap mice on postoperative day 7.

Chain of Pyruvate kinase M2, P52480 1-531 (enzyme; other documents disagree on this pair) (P52480 whole entry): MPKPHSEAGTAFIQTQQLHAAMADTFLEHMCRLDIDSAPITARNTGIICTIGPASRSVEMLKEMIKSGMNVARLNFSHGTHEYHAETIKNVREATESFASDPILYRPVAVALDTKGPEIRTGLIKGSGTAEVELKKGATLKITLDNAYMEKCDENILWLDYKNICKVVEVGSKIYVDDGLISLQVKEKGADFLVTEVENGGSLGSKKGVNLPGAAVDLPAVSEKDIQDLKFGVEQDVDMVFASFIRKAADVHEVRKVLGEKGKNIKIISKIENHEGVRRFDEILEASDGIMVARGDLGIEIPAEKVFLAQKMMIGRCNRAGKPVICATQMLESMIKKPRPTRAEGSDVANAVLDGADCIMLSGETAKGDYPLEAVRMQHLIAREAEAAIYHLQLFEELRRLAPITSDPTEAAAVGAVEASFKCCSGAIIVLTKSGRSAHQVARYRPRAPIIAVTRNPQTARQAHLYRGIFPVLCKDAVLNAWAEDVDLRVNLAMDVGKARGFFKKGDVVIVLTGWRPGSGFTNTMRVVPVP

In general, stoichiometry N refers to a count of units in the complex or per binding partner. Take “Pyruvate kinase M2, P52480 1-531 (enzyme; other documents disagree on this pair)”: the stoichiometry N is 4 and 2.

(Values after publication PMC11653614.)
